This note sets out measurements from US5910570.

Like-named read-outs stand apart in the source and are kept apart here.

In experiment [1] the target is apomucin (deglycosylated mucin) prepared from bovine submaxillary mucin (bovine).
In experiment [2] the target is serine containing acceptor peptide ….
Experiment [3] has as its target apomucin (deglycosylated mucin) prepared from bovine submaxillary mucin (bovine). The source holds these as a separate data set.
In experiment [4] the target is serine containing acceptor peptide …. The source holds these as a separate data set.

Consider “cloned full-length (membrane bound) bovine GalNAc-transferase expressed in Sf9 cells (enzyme)”, for which, in experiment [1], the Total activity (U), cell lysate came out at 16.2 U.
Turning to “soluble, secreted recombinant bovine GalNAc-transferase (GalNAcTs) expressed in Sf9 cells (enzyme)”, the results for the Km in experiment [2] and in experiment [4] were 3.6 mM and 3.5 mM, respectively. In experiment [3], this substance displayed a specific activity of 2160 U/mg protein.
